Source: the Human Domainome abundance scans (Beltran et al. 2025)
± gives the uncertainty stated by the source.

B1: Far upstream element-binding protein 2, residues 142 to 214; numbered along this chain, Q92945 (parent)
chain: RTSMTEEYRVPDGMVGLIIGRGGEQINKIQQDSGCKVQISPDSGGLPERSVSLTGAPESVQKAKMMLDDIVSR

Variants of: B1
Assay: abundance fitness (aPCA) (normalised: wild type 0, dead -1); higher = more abundant; growth selection in yeast, the domain comes from the species named
Details: Homo sapiens

Variant | abundance fitness
RTSMTEEYRVLDGMVGLIIGRGGEQINKIQQDSGCKVQISPDSGGLPERSVSLTGAPESVQKAKMMLDDIVSR | -0.362 ± 0.048
RTSMTEEYRVPDGMVGPIIGRGGEQINKIQQDSGCKVQISPDSGGLPERSVSLTGAPESVQKAKMMLDDIVSR | -0.199 ± 0.051
RTSMTEEYRVPDGMVQLIIGRGGEQINKIQQDSGCKVQISPDSGGLPERSVSLTGAPESVQKAKMMLDDIVSR | -0.034 ± 0.056
RTSMTEEYRVPDGMVGLIIGRGGEQINKIQADSGCKVQISPDSGGLPERSVSLTGAPESVQKAKMMLDDIVSR | -0.109 ± 0.046
RTSMTEEYRVPDGMVGLIIGRGGEQINKIQQDSGCKVQISPLSGGLPERSVSLTGAPESVQKAKMMLDDIVSR | -0.232 ± 0.045
RTSMTEEYRVPDGMVGLIIGRGGEQINKIQQDSGCKVQISPYSGGLPERSVSLTGAPESVQKAKMMLDDIVSR | -0.061 ± 0.085
RTSMTEEYRVPDGMVGLIIGRGGEQINKIQQDSGCKVQISPDSGGLPERSVSLTGAPESVQKAKMMDDDIVSR | -0.462 ± 0.064
RTSMTEEYRVPDGMVGLIIGRGGEQINKIQQDSGCKVQISPDSGGLPENSVSLTGAPESVQKAKMMLDDIVSR | -0.104 ± 0.13
RTSMTEEYRVPDGMVGLIIGRGGEQINKIQQDSGCKVQISPDSGGLPERSVSLTGAPESVDKAKMMLDDIVSR | -0.168 ± 0.076
RTSMTEEYRVPDGMVGLIIGRGGEQINKIQQDSGCKVQISPDSGGFPERSVSLTGAPESVQKAKMMLDDIVSR | -0.097 ± 0.067
RTSMTEEYRVPDGMVGLIIGRGGEQINKIQQDSGCSVQISPDSGGLPERSVSLTGAPESVQKAKMMLDDIVSR | -0.066 ± 0.048
RTSMTEEYRVPDGMVGLIIGRGGEQINKIQQDSGCKVQISPDSGGLPERSVSLTGAPTSVQKAKMMLDDIVSR | -0.174 ± 0.055
RTSMTEEYRVPRGMVGLIIGRGGEQINKIQQDSGCKVQISPDSGGLPERSVSLTGAPESVQKAKMMLDDIVSR | 0.088 ± 0.043
RTSMTEEYRVPKGMVGLIIGRGGEQINKIQQDSGCKVQISPDSGGLPERSVSLTGAPESVQKAKMMLDDIVSR | -0.032 ± 0.061
RTSMTEEYRVPDGMVGLIIGRRGEQINKIQQDSGCKVQISPDSGGLPERSVSLTGAPESVQKAKMMLDDIVSR | -0.032 ± 0.039
RTSMTEEYRVPDGMVGLIIGRTGEQINKIQQDSGCKVQISPDSGGLPERSVSLTGAPESVQKAKMMLDDIVSR | -0.192 ± 0.06
RTSMTEEYRVPDGMVGLIIGRGGEQINKIQQDSGCKVQISPDSGGLPERSVSLTGDPESVQKAKMMLDDIVSR | -0.025 ± 0.077
RTSMTEEYRVPDGMVGLIIGRGGEQINKIQQDSGIKVQISPDSGGLPERSVSLTGAPESVQKAKMMLDDIVSR | -0.786 ± 0.16
RTSMTEEYRVPDGMVGLIIGRGGEQINKIQQDSGPKVQISPDSGGLPERSVSLTGAPESVQKAKMMLDDIVSR | -0.658 ± 0.068

Variant | abundance fitness
RTSMTEEYRVPDGMVGLIIGRGGEQINKIQQDSGGKVQISPDSGGLPERSVSLTGAPESVQKAKMMLDDIVSR | -0.756 ± 0.042
RTSMTEEYRVPDGMVGLIIGRGGEQINKIQQDSGCKRQISPDSGGLPERSVSLTGAPESVQKAKMMLDDIVSR | -0.804 ± 0.045
RTSMTEEKRVPDGMVGLIIGRGGEQINKIQQDSGCKVQISPDSGGLPERSVSLTGAPESVQKAKMMLDDIVSR | -0.417 ± 0.055
RTSMTEECRVPDGMVGLIIGRGGEQINKIQQDSGCKVQISPDSGGLPERSVSLTGAPESVQKAKMMLDDIVSR | -0.609 ± 0.063
RTSMTEEYRVPDGMVGLIIGRGGEQINKIQQDSGCKVQISPDSGGLPERSISLTGAPESVQKAKMMLDDIVSR | 0.117 ± 0.085
RTSMTEEYRVPDGMVGLIIGRGGEQANKIQQDSGCKVQISPDSGGLPERSVSLTGAPESVQKAKMMLDDIVSR | -0.394 ± 0.048
RTSMTEEYRNPDGMVGLIIGRGGEQINKIQQDSGCKVQISPDSGGLPERSVSLTGAPESVQKAKMMLDDIVSR | -0.567 ± 0.081
RTSMTEEYRVPDGMVGLIIGRGGEQINKIQQDSGCKVQYSPDSGGLPERSVSLTGAPESVQKAKMMLDDIVSR | -0.386 ± 0.085
RTSMTEEYRVPDGMVGLIIGRGGEQINKIQQDSGCKVQISPDSGGLPERSVSLTGAPESVQKAEMMLDDIVSR | -0.653 ± 0.054
RTSMTEEYRVPDGMVGLIIGRGGEQINKIQQDSGCKVQISPDSGGLPERSVSLTKAPESVQKAKMMLDDIVSR | -0.681 ± 0.093
RTSMTEEYRVPDGMVGLIIGRGGEQINLIQQDSGCKVQISPDSGGLPERSVSLTGAPESVQKAKMMLDDIVSR | -0.239 ± 0.044
RTSMTEEYRVPDGMVGLIIGRGGEQINKIQQDSGCKVQISPDSGGLPERSVSLTGAPESVQKTKMMLDDIVSR | -0.69 ± 0.078
RTSMTEEYRVPDGMVGLIIGRGGEQINKIQQDSGCKVQISPDSGGLPERSVSLTGAPESVQKAKMMLDVIVSR | -0.181 ± 0.046
RTSMTEEYRVPDGMVGLIIGRGGEQINKIQQDSGCKVQISPDSGGLPERSVSLTGAPESVQKAKMMLDPIVSR | -0.589 ± 0.058
RTSMTEEYRVPDGMAGLIIGRGGEQINKIQQDSGCKVQISPDSGGLPERSVSLTGAPESVQKAKMMLDDIVSR | -0.053 ± 0.058
RTSMTEEYRVPDGMVGLIIGRGGEQINKIQQDSGCKVQISPDSGNLPERSVSLTGAPESVQKAKMMLDDIVSR | -0.11 ± 0.076
RTSMTEEYRVPDGMVGLIIGRGGEQINKIQQDSGCKVVISPDSGGLPERSVSLTGAPESVQKAKMMLDDIVSR | -0.001 ± 0.048
RTSMTEEYRVPDGMVGLIIGRGGEQINKIQQDSGCKVQISPDEGGLPERSVSLTGAPESVQKAKMMLDDIVSR | -0.082 ± 0.053
RTSMTEEYRVPDGMVGLIIGRGGEQINKIQQDRGCKVQISPDSGGLPERSVSLTGAPESVQKAKMMLDDIVSR | -1.06 ± 0.056
